This series in a line: yeast display, Sf9 membrane polyspecificity reagent, FACS + sequencing; frameworks hold sequencing errors. In a few lines: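 Using colony PCR, genes from sorted yeast display clones were amplified, then sequenced on MiSeq at 2 × 250 and filtered by CDR length. The clones had been stained with 10% biotinylated, detergent-solubilized Sf9 membrane reagent for 1 hour at 4 °C and sorted by FACS into low and high (top ~1%) gates on anti-HA and streptavidin fluorescence. Polyreactivity labels come from the gate of origin.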
Turning to “QVQLVESVGGLVQAGGILRLSSAASGSTFDINEKGWYRQAPGKERELVAAITWSGDSTYYADSVKGRFTISRDNAKNTVYLQMNSLKPVDTAVYYCSAYYPYSYYEDASYYYWGQGTQVTLSS”, the “polyreactivity (PSR sort gate)” value is “low polyreactivity”.
On to “QVQLVESVGGLVQAGGRLRLSCAASGSIFLYNAMGWYRQAPGKERELVAVINGRGGTYYADSVKGRFTISRDNAKNTVYLQMNSLKPEDTAVYYCATGYPPSAGYDSVRFEDRDSWGQGTQVTVSS”, for which the “polyreactivity (PSR sort gate)” value is reported as “low polyreactivity”.
As to “QVQLVESVGGLVQAGGRLRLSCAASGSIFSIYGMGWYRQAPGKERELVAVISKSGTRTFYADSVKGRFTISRDNAKNTVYLQMNSLKPEDTAVYYCNARIFFRRNVTQVRMDYWGQGTQVTVSS”, the “polyreactivity (PSR sort gate)” value is reported as “high polyreactivity”.
As for “QVQLVESVGGLVQAGGRLRLSCAASGSIFWFNAMGWYRQAPGKEREFVASISRSGGTTYYADSVKGRFTISRDNAKNTVYLQMNSLKPEDTAVYYCNARAYGNGLGTGYFGNHRYDYWGQGTQVTVSS”, the “polyreactivity (PSR sort gate)” value is “low polyreactivity”.
Regarding “QVQLVESVGGLVQAGGRLRLSCAASGSTFAFNAMGWSRQAPGKEREFVAVISYRTDNTYYADSVKGRFTISRDNAKNTVYLQMNSLKPEDTAVYYCAAASSYSKKPYYSYGYWGQGTQVTVSS”, the “polyreactivity (PSR sort gate)” value is reported as “high polyreactivity”.
Regarding “QVQLVESVGGLVQAGGSHRLSGAASGRTLYRYGLGWYRQAPGKDRELVAVIDRGGSTNYADSVKGRFTISRDNAKNTVYLQMNSLKPEDTAVYYCAKRWTAREAWRKGMGYWGQGTKVTVSS”, the “polyreactivity (PSR sort gate)” value is given as “high polyreactivity”.
“QVQLVESVGGLVQAGGSLPLSCAASGSTFVDYDMGWYRQAPGKERELVAAITYSGARTYYADSVKGRFTISRDNAKNTVYLQMNSLTPEDSAVYYGNADQRTASDQLEFDYWGQGTQVTVSS”: the “polyreactivity (PSR sort gate)” value is “low polyreactivity”.
The result for “QVQLVESVGGLVQAGGSLRFSCAASGRIFKWYAMGWYRQAPGKEREFVAGIRWGGGRTHYADSVKGRFTISRDNAKNTVYLQMNSLKPEDTAVYYCAADNRGNTVYYRNYYWGQGTQVTVSS” reads “high polyreactivity”; that for “QVQLVESVGGLVQAGGSLRLICAASGIIFKFNAMGWYRQAPGKEREFVAAIRWRGGSTYYADSVKGRFTISRDNAKNTVYLQMNSLKPEDTAVYYCAATYRTGYYYWGQGTQVTVSS”, “high polyreactivity”; that for “QVQLVESVGGLVQAGGSLRLSCAASGFIFSWYAMGWYRQAPGKERELVAAINSGGRTSYADSVKGRFTISRDNAKNTVYLQMNSLKPEDTAVYYCAAPVYYYNRARYSYDYWGQGTQVTVSS”, “high polyreactivity”.
Take “QVQLVESVGGLVQAGGSLRLSCAASGFIFYRYAMGWYRKAPGKEWEFVAAINYSATSTYYADSVKGRFTISRDNAKNTVYLQMNSLKPEDTAVYYCAAKRVRRLSYETKYDYWGQGTQVTVSS”: the “polyreactivity (PSR sort gate)” value is “high polyreactivity”.
The result for “QVQLVESVGGLVQAGGSLRLSCAASGFILGYNAMGWYRQAPGKERELVADITFSGGGTNYADSVKGRFTISRDNAKNTVYLQMNSLKPEDTAVYDCNAAAFSQLRVRYDYWGQGTQVTVSS” reads “low polyreactivity”; that for “QVQLVESVGGLVQAGGSLRLSCAASGFTFGYYAMGWYRQAPGKERELVASISRSGGSTNYADSVKGRFTISRDNAKNTVYLQMNSLKPEDTAVYYCAKPLWDPKYDYWGQGTQVTVSS”, “high polyreactivity”.
“QVQLVESVGGLVQAGGSLRLSCAASGFTFNGYAMGWYRQAPGKERELVAAINISGGSTYYADSVKGRFTISRDNAKNTVYLQMNSLKPEDTAVYYCAARLWGIRYSYRYGYWGQGTQVTVSS”: the “polyreactivity (PSR sort gate)” value is “high polyreactivity”.
On to “QVQLVESVGGLVQAGGSLRLSCAASGFTFRVNAMGWYIQAPGKERELVAAISSGGSTNYADTVKGRFTISRDNAKNTVYLQMNSLKPEDTAVYYCAKRFKYIYYWGQGTQVTVSS”, for which the “polyreactivity (PSR sort gate)” value is listed as “high polyreactivity”.
On to “QVQLVESVGGLVQAGGSLRLSCAASGFTSWDNDMGWYRQAPGKERELVAAISRGGSTNYADSVKGRFTISRDNAKNTVYLQMNSLKPEDTAVYYCATAAVTPVWYDYWGQGTQVTVSS”, for which the “polyreactivity (PSR sort gate)” value is on record as “low polyreactivity”.
